Laboratory results reported in patent US20240366776A1 (Hoffmann-La Roche, published 2024).

T1: biotinylated IL-2 receptor beta gamma heterodimer Fc (IL-2RBG; Acro ILG-H5254) (UniProt P14784 27-239; P31785 23-262, biotinylated)
T1 construct: bought heterodimer
T1 sequence (looked up) 1: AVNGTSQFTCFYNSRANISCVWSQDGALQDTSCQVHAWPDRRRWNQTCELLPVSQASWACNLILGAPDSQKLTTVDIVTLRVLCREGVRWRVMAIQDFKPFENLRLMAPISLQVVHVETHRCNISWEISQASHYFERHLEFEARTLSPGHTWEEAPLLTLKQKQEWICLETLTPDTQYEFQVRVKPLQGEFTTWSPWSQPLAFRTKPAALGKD
T1 sequence (looked up) 2: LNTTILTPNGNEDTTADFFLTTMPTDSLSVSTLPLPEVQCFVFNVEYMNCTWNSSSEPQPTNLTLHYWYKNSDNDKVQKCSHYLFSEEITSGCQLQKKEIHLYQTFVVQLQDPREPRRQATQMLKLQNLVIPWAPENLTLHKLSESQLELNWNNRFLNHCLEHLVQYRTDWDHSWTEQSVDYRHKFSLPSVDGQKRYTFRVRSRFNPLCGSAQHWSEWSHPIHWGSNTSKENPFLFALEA


Biological target: T1, biotinylated IL-2 receptor beta gamma …
Assay: ELISA, captured complex, biotin-IL-2RBG 10 nM, PD-1 Fc titrated
Description: The DBA-cytokine complexes and control antibody-cytokine complexes were produced in two formats: (1) “Symmetric” immunocytokine (shown in FIG. 2E); or (2) “Asymmetric” immunocytokine (shown in FIG. 2B) by expression in mammalian cells and purified using standard protocols. […] To perform the assay, 384-well ELISA plates were coated with anti-Fc antibody at 1 micrograms/ml in 100 mM bicarbonate solution pH 9.0 overnight at 4° C. and washed twice with SUPERBLOCK™. Antibody-cytokine complexes were then added to each well at a constant concentration of 6 nM and allowed to incubate for 1 hour and washed three times in PBS plus 0.05% TWEEN® 20 (PBST). Titrated concentrations of PD-1 Fc or an IgG1 control Fc were added and allowed to incubate for 15 minutes before the addition of a constant amount of biotinylated IL-2RBG at 10 nM. The plates were incubated for an additional 30 minutes, washed and biotinylated IL-2RBG detection was performed using streptavidin-HRP and standard ELISA protocols.

Binder	binding result
AF003232 (other, also called AF3232) heavy 1: APASSSTKKTQLQLEHLLLDLQMILNGINNYKNPKLTRMLTAKFAMPKKATELKHLQCLEEELKPLEEVLNGAQSKNFHLRPRDLISNINVIVLELKGSETTFMCEYADETATIVEFLNRWITFAQSIISTLTGGGGSGGGGSGGGGSGGGGSQVQLVQSGAEVKKPGASVKVSCKASGDTFTRHYVHWVRQAPGQGLEWMGIINPSGGYASYAQKFQGRVTMTRDTSTSTVYMELSSLRSEDTAVYYCAAGLFIWGQGTLVTVSSAKTTAPSVYPLAPVCGDTTGSSVTLGCLVKGYFPEPVTLTWNSGSLSSGVHTFPAVLQSDLYTLSSSVTVTSSTWPSQSITCNVAHPASSTKVDKKIEPRGPTIKPCPPCKCPAPNAAGGPSVFIFPPKIKDVLMISLSPIVTCVVVDVSEDDPDVQISWFVNNVEVHTAQTQTHREDYNSTLRVVSALPIQHQDWMSGKEFKCKVNNKDLGAPIERTISKPKGSVRAPQVYVLPPPEEEMTKKQVTLTCMVTDFMPEDIYVEWTNNGKTELNYKNTEPVLDSDGSYFMYSDLRVEKKNWVERNSYSCSVVHEGLHNHHTTESFSRTPGK heavy 2: QVQLVQSGAEVKKPGASVKVSCKASGDTFTRHYVHWVRQAPGQGLEWMGIINPSGGYASYAQKFQGRVTMTRDTSTSTVYMELSSLRSEDTAVYYCAAGLFIWGQGTLVTVSSAKTTAPSVYPLAPVCGDTTGSSVTLGCLVKGYFPEPVTLTWNSGSLSSGVHTFPAVLQSDLYTLSSSVTVTSSTWPSQSITCNVAHPASSTKVDKKIEPRGPTIKPCPPCKCPAPNAAGGPSVFIFPPKIKDVLMISLSPIVTCVVVDVSEDDPDVQISWFVNNVEVHTAQTQTHREDYNSTLRVVSALPIQHQDWMSGKEFKCKVNNKDLGAPIERTISKPKGSVRAPQVYVLPPPEKEMTKKQVSLTCLVKDFMPEDIYVEWTNNGKTELNYKNTEPVLKSDGSYFMYSKLTVEKKNWVERNSYSCSVVHEGLHNHHTTKSFSRTPGGGGSGGGSHHHHHH light: DIQMTQSPSSLSASVGDRVTITCRASQSIGRWLAWYQQKPGKAPKLLIYSASNLETGVPSRFSGSGSGTDFTLTISSLQPEDFATYYCQQYESFPVTFGPGTKVDIKRADAAPTVSIFPPSSEQLTSGGASVVCFLNNFYPKDINVKWKIDGSERQNGVLNSWTDQDSKDSTYSMSSTLTLTKDEYERHNSYTCEATHKTSTSPIVKSFNRNEC	binds
AF003740 (other, also called AF3740) heavy 1: APASSSTKKTQLQLEHLLLDLQMILNGINNYKNPKLTRMLTAKFAMPKKATELKHLQCLEEELKPLEEVLNGAQSKNFHLRPRDLISNINVIVLELKGSETTFMCEYADETATIVEFLNRWITFAQSIISTLTGGGGSGGGGSGGGGSGGGGSQVQLVQSGAEVKKPGASVKVSCKASGDTFTRYYVHWVRQAPGQGLEWMGIINPSGGYASYAQKFQGRVTMTRDTSTSTVYMELSSLRSEDTAVYYCAAGLFIWGQGTLVTVSSAKTTAPSVYPLAPVCGDTTGSSVTLGCLVKGYFPEPVTLTWNSGSLSSGVHTFPAVLQSDLYTLSSSVTVTSSTWPSQSITCNVAHPASSTKVDKKIEPRGPTIKPCPPCKCPAPNAAGGPSVFIFPPKIKDVLMISLSPIVTCVVVDVSEDDPDVQISWFVNNVEVHTAQTQTHREDYNSTLRVVSALPIQHQDWMSGKEFKCKVNNKDLGAPIERTISKPKGSVRAPQVYVLPPPEEEMTKKQVTLTCMVTDFMPEDIYVEWTNNGKTELNYKNTEPVLDSDGSYFMYSDLRVEKKNWVERNSYSCSVVHEGLHNHHTTESFSRTPGK heavy 2: QVQLVQSGAEVKKPGASVKVSCKASGDTFTRYYVHWVRQAPGQGLEWMGIINPSGGYASYAQKFQGRVTMTRDTSTSTVYMELSSLRSEDTAVYYCAAGLFIWGQGTLVTVSSAKTTAPSVYPLAPVCGDTTGSSVTLGCLVKGYFPEPVTLTWNSGSLSSGVHTFPAVLQSDLYTLSSSVTVTSSTWPSQSITCNVAHPASSTKVDKKIEPRGPTIKPCPPCKCPAPNAAGGPSVFIFPPKIKDVLMISLSPIVTCVVVDVSEDDPDVQISWFVNNVEVHTAQTQTHREDYNSTLRVVSALPIQHQDWMSGKEFKCKVNNKDLGAPIERTISKPKGSVRAPQVYVLPPPEKEMTKKQVSLTCLVKDFMPEDIYVEWTNNGKTELNYKNTEPVLKSDGSYFMYSKLTVEKKNWVERNSYSCSVVHEGLHNHHTTKSFSRTPGK light: DIQMTQSPSSLSASVGDRVTITCRASQSIGRWLAWYQQKPGKAPKLLIYSASNLETGVPSRFSGSGSGTDFTLTISSLQPEDFATYYCQQYNSFPVTFGPGTKVDIKRADAAPTVSIFPPSSEQLTSGGASVVCFLNNFYPKDINVKWKIDGSERQNGVLNSWTDQDSKDSTYSMSSTLTLTKDEYERHNSYTCEATHKTSTSPIVKSFNRNEC	binds

Other lines, results leading:

binding result	Binder
binds	AF003747 (other, also called AF3747) heavy 1: APASSSTKKTQLQLEHLLLDLQMILNGINNYKNPKLTRMLTAKFAMPKKATELKHLQCLEEELKPLEEVLNGAQSKNFHLRPRDLISNINVIVLELKGSETTFMCEYADETATIVEFLNRWITFAQSIISTLTGGGGSGGGGSGGGGSGGGGSQVQLVQSGAEVKKPGASVKVSCKASGDTFTRYYVHWVRQAPGQGLEWMGIINPSGGYASYAQKFQGRVTMTRDTSTSTVYMELSSLRSEDTAVYYCAAGLFIWGQGTLVTVSSAKTTAPSVYPLAPVCGDTTGSSVTLGCLVKGYFPEPVTLTWNSGSLSSGVHTFPAVLQSDLYTLSSSVTVTSSTWPSQSITCNVAHPASSTKVDKKIEPRGPTIKPCPPCKCPAPNAAGGPSVFIFPPKIKDVLMISLSPIVTCVVVDVSEDDPDVQISWFVNNVEVHTAQTQTHREDYNSTLRVVSALPIQHQDWMSGKEFKCKVNNKDLGAPIERTISKPKGSVRAPQVYVLPPPEEEMTKKQVTLTCMVTDFMPEDIYVEWTNNGKTELNYKNTEPVLDSDGSYFMYSDLRVEKKNWVERNSYSCSVVHEGLHNHHTTESFSRTPGK heavy 2: QVQLVQSGAEVKKPGASVKVSCKASGDTFTRYYVHWVRQAPGQGLEWMGIINPSGGYASYAQKFQGRVTMTRDTSTSTVYMELSSLRSEDTAVYYCAAGLFIWGQGTLVTVSSAKTTAPSVYPLAPVCGDTTGSSVTLGCLVKGYFPEPVTLTWNSGSLSSGVHTFPAVLQSDLYTLSSSVTVTSSTWPSQSITCNVAHPASSTKVDKKIEPRGPTIKPCPPCKCPAPNAAGGPSVFIFPPKIKDVLMISLSPIVTCVVVDVSEDDPDVQISWFVNNVEVHTAQTQTHREDYNSTLRVVSALPIQHQDWMSGKEFKCKVNNKDLGAPIERTISKPKGSVRAPQVYVLPPPEKEMTKKQVSLTCLVKDFMPEDIYVEWTNNGKTELNYKNTEPVLKSDGSYFMYSKLTVEKKNWVERNSYSCSVVHEGLHNHHTTKSFSRTPGK light: DIQMTQSPSSLSASVGDRVTITCRASQSIGRYLAWYQQKPGKAPKLLIYSASNLETGVPSRFSGSGSGTDFTLTISSLQPEDFATYYCQQYNSFPVTFGPGTKVDIKRADAAPTVSIFPPSSEQLTSGGASVVCFLNNFYPKDINVKWKIDGSERQNGVLNSWTDQDSKDSTYSMSSTLTLTKDEYERHNSYTCEATHKTSTSPIVKSFNRNEC
binds	AF003945 (other, also called AF3945) heavy 1: APASSSTKKTQLQLEHLLLDLQMILNGINNYKNPKLTRMLTAKFAMPKKATELKHLQCLEEELKPLEEVLNGAQSKNFHLRPRDLISNINVIVLELKGSETTFMCEYADETATIVEFLNRWITFAQSIISTLTGGGGSGGGGSGGGGSGGGGSQVQLVQSGAEVKKPGASVKVSCKASGDTFTRYYVHWVRQAPGQGLEWMGIINPSGGYASYAQKFQGRVTMTRDTSTSTVYMELSSLRSEDTAVYYCAAGLFIWGQGTLVTVSSAKTTAPSVYPLAPVCGDTTGSSVTLGCLVKGYFPEPVTLTWNSGSLSSGVHTFPAVLQSDLYTLSSSVTVTSSTWPSQSITCNVAHPASSTKVDKKIEPRGPTIKPCPPCKCPAPNAAGGPSVFIFPPKIKDVLMISLSPIVTCVVVDVSEDDPDVQISWFVNNVEVHTAQTQTHREDYNSTLRVVSALPIQHQDWMSGKEFKCKVNNKDLGAPIERTISKPKGSVRAPQVYVLPPPEEEMTKKQVTLTCMVTDFMPEDIYVEWTNNGKTELNYKNTEPVLDSDGSYFMYSDLRVEKKNWVERNSYSCSVVHEGLHNHHTTESFSRTPGK heavy 2: QVQLVQSGAEVKKPGASVKVSCKASGDTFTRYYVHWVRQAPGQGLEWMGIINPSGGYASYAQKFQGRVTMTRDTSTSTVYMELSSLRSEDTAVYYCAAGLFIWGQGTLVTVSSAKTTAPSVYPLAPVCGDTTGSSVTLGCLVKGYFPEPVTLTWNSGSLSSGVHTFPAVLQSDLYTLSSSVTVTSSTWPSQSITCNVAHPASSTKVDKKIEPRGPTIKPCPPCKCPAPNAAGGPSVFIFPPKIKDVLMISLSPIVTCVVVDVSEDDPDVQISWFVNNVEVHTAQTQTHREDYNSTLRVVSALPIQHQDWMSGKEFKCKVNNKDLGAPIERTISKPKGSVRAPQVYVLPPPEKEMTKKQVSLTCLVKDFMPEDIYVEWTNNGKTELNYKNTEPVLKSDGSYFMYSKLTVEKKNWVERNSYSCSVVHEGLHNHHTTKSFSRTPGGGGSGGGSHHHHHH light: DIQMTQSPSSLSASVGDRVTITCRASQSIGSWLAWYQQKPGKAPKLLIYSASNLETGVPSRFSGSGSGTDFTLTISSLQPEDFATYYCQQYNSFPVTFGPGTKVDIKRADAAPTVSIFPPSSEQLTSGGASVVCFLNNFYPKDINVKWKIDGSERQNGVLNSWTDQDSKDSTYSMSSTLTLTKDEYERHNSYTCEATHKTSTSPIVKSFNRNEC
